From patent publication US20240293570A1 (priority 2021, published 2024)
Like-named read-outs stand apart in the source and are kept apart here. *1 amine or outer side, *2 acyl side, *3 side chain or, on linkers, in order; H or OH if unused. Where a SMILES comes first, the peptide text is derived from it. [ ]: non-standard residue; d: D form. The star is where a group is joined. Exatecan = CC[C@@]1(O)C(=O)OCc2c1cc1n(c2=O)Cc2c-1nc1cc(F)c(C)c3c1c2[C@@H](N*)CC3; MaleimidoPEG4propanoyl = O=C1C=CC(=O)N1CCOCCOCCOCCOCCC(=O)*; X2 = CO[C@@H]([C@H]1CCCN1[*:1])[C@@H](C)C(=O)[*:2]; Propanoyl(3-maleimido) = O=C1C=CC(=O)N1CCC(=O)*; Dil = CC[C@H](C)[C@H](NC)[C@@H](CC(=O)O)OC; X1 = O=C(CN1CCOCCN([*:1])CCOCC1)[*:2]; PABC = O=C(OCc1ccc(N[*:1])cc1)[*:2]; NHCH2OCH2CO = O=C(COCN[*:1])[*:2]; X3 = C[C@@H](N*)[C@@H](O)c1ccccc1; NMeV = CN[C@H](C(=O)O)C(C)C

What was measured:
[1] = assay type: physicochemical; conditions: ADC with Her2 antibody, RP-HPLC-MS
Protocol: (§1) A drug-antibody conjugating ratio (also known as drug-antibody ratio, abbreviated as DAR) of the antibody-drug conjugate was tested using reversed-phase high-performance liquid chromatography-mass chromatography (RP-HPLC-MS). The ADC sample was diluted with 50 mmol/L Tris buffer (pH 8.0) to 1 mg/ml. A fresh dithiothreitol (DTT) stock solution was added to achieve a final DTT concentration of 50 mmol/L. Incubation was performed at 37° C. for 30 minutes. A PLRP-S chromatographic column (1000 Å pores, 2.1×50 mm, 5) μm) was used, and the column temperature was 70° C. The flow rate was 0.25 mL/min. […] of sample was injected; the mobile phase A was an aqueous solution of 0.1% formic acid (V/V) and 0.025% trifluoroacetic acid (V/V), and the mobile phase B was an acetonitrile solution of 0.1% formic acid (V/V) and 0.025% trifluoroacetic acid (V/V); the running time was 0-3 minutes, where 27% of mobile phase B ran for 3 minutes, and the mobile phase B ran from 27% to 49% within 3-25 minutes, from 49% to 95% within 25-26 minutes, at 95% within […], from 95% to 27% within 30-31.5 minutes, and at 27% for 31.5-45 minutes. […] Mass spectrometry drying gas was at a temperature of 350° C. and a flow rate of 7.0 L/min, the pressure of an atomizer was 40 psi, capillary voltage was positive 3000V and negative 3000V, and the mass range was 500-1600 m/z. The molecular weight of each mass spectrometry peak (ranging from 20000 to 70000) was calculated by deconvolution and compared with light and heavy chain molecular weights of un-conjugated antibodies to calculate a drug load at each peak, so as to determine the load of a corresponding ultraviolet peak. Area percentages of heavy and light chain ultraviolet peaks were calculated through integration, and a weighted average DAR of the antibody-drug conjugate was calculated by combining the area percentages with the drug load distribution of each peak.

[2] = Polymer (high molecular component) content of antibody-drug conjugates by SE-HPLC; assay type: physicochemical; conditions: ADC with Her2 antibody
Protocol: (§2) Polymers (high molecular components) of the antibody-drug conjugates were tested using molecular exclusion high-performance liquid chromatography (SE-HPLC). A Biocore SEC chromatographic column (7.8×300 mm, […]) was used, and the mobile phase was 50 mM phosphate containing 300 mM sodium chloride (pH 6.8), with a flow rate of 0.5 mL/min. Samples of […] and 10 μl were injected. […] The polymer content of an antibody-drug conjugate was calculated using an area normalization method.

[3] = Stability (placement) test of ADCs at 40° C. in dark for 14 days, DAR and polymer content; assay type: physicochemical
Protocol: as §2, §1
Stability testing method: The stability of the obtained ADCs was tested for 14 days. The ADCs were placed at 40° C. in dark. Sampling points were days 0, 7, and 14. The polymer content and DAR value of samples at different sampling points were tested according to the method in Experimental Example 1.

[4] = Plasma stability of ADCs, generated payload by LC-MS/MS, human plasma; assay type: in vitro ADME, humans; conditions: 37° C., 100 μg/mL, up to 21 d, FIG. 7-9
Protocol: (§3) In order to further evaluate the characteristics of ADCs, the plasma stability of ADCs was tested. The plasma stability was tested by the following steps:
(§4) A test sample stock solution was diluted with ultra-pure water into a working solution having a concentration of 2.5 mg/mL. The working solution was prepared as needed and used at room temperature.
(§5) Follow the following steps to test plasma samples: • (1) 980 μL of plasma was collected from blank CD-1 mice, monkeys, and humans (experimental group N=2, control group N=1) and pre-incubated at 37° C. for 5 minutes; • (2) 20 μL of test compound working solution (or positive control drug (payload) working solution) was added, followed by vortex mixing (final concentration of the test compound was 100 μg/mL, and final concentration of the positive control drug was 1 μM). 50 μL of plasma sample was immediately added into 150 μL of ice precipitant, followed by vortex mixing as a 0 h sample; • (3) The remaining plasma samples were sealed and further incubated at 37° C., and 50 μL of each plasma sample was pipetted into 150 μL of ice precipitant according to preset time points in Table 3, followed by vortex mixing; […]
(§6) The samples were analyzed using liquid chromatography-tandem mass spectrometry (LC-MS/MS) to measure the quantity of a generated payload, where the quantities of two payloads were measured for dual toxin ADCs respectively.

[5] = Plasma stability of ADCs, generated payload by LC-MS/MS, monkey plasma; assay type: in vitro ADME, monkeys; conditions: 37° C., 100 μg/mL, up to 21 d, FIG. 7-9
Protocol: as §3, §4, §5, §6

[6] = Plasma stability of ADCs, generated payload by LC-MS/MS, mouse plasma; assay type: in vitro ADME, CD-1 mice; conditions: 37° C., 100 μg/mL, up to 21 d, FIG. 7-9
Protocol: as §3, §4, §5, §6

[7] = Naked antibody content of antibody-drug conjugates by hydrophobic interaction chromatography (HIC); assay type: physicochemical; conditions: ADC with Her2 antibody
Protocol: The content of naked antibodies in the antibody-drug conjugate was tested using hydrophobic interaction chromatography (HIC). A Biocore HIC-Butyl chromatographic column (4.6×150 mm, 5 μm) was used. The mobile phase A was a 100 mM phosphate aqueous solution containing 2 M ammonium sulfate (pH 7.0), and the mobile phase B was a 100 mM phosphate aqueous solution (pH 7.0): isopropanol=80:20 (V/V). Samples of 50 μg and 10 μl were injected. The mobile phase A at the flow rate of 1 mL/min ran at 100% for 3 minutes. Within 3-25 minutes, the mobile phase B ran from […] to 100%, while the mobile phase B decreased to 0% at 25.1 and ran to 30 minutes. […] The naked antibody content of the antibody-drug conjugate was calculated using an area normalization method based on the retention time of a naked antibody peak located by the antibody of the antibody-drug conjugate.

SMILES | DAR [1] | Polymer content (%) [2] [%] | DAR ([3]; Day 0, 40° C. in dark) | Polymer content (%) ([3]; Day 0, 40° C. in dark) | DAR ([3]; Day 7, 40° C. in dark) | Polymer content (%) ([3]; Day 7, 40° C. in dark) | DAR ([3]; Day 14, 40° C. in dark) | Polymer content (%) ([3]; Day 14, 40° C. in dark) | stability in the plasma of humans [4] | stability in the plasma of monkeys [5] | stability in the plasma of mice [6] | Naked antibody content (%) [7] [%]
C=C1C[C@@H]2CC[C@@]34C[C@H]5OC6C(O[C@H]7CC[C@H](CC(=O)C[C@@H]8[C@@H](OC)[C@@H](C[C@H](O)CNC(=O)CNC(=O)[C@H](Cc9ccccc9)NC(=O)CNC(=O)CNC(=O)CCOCCOCCN(CCOCCOCCC(=O)NCC(=O)NCC(=O)N[C@@H](Cc9ccccc9)C(=O)NCC(=O)NCOCC(=O)N[C@H]9CCc%10c(C)c(F)cc%11nc%12c(c9c%10%11)Cn9c-%12cc%10c(c9=O)COC(=O)[C@]%10(O)CC)C(=O)CN9CCOCCOCCOCCOCCN(C(=O)CCOCCOCCOCCOCCC%10C(=O)C=CC%10=O)CCOCCOCCOCCOCC9)O[C@H]8C[C@H]8O[C@@H](CC[C@@H]1O2)C[C@@H](C)C8=C)O[C@@H]7[C@@H]6O3)[C@H]5O4 [Example 13] | 4.02 | 0.77 | 4.02 | 0.77 | 4.02 | 0.78 | 4.04 | 0.91 | significantly better | significantly better | significantly better | 5.02
CC[C@@]1(O)C(=O)OCc2c1cc1n(c2=O)Cc2c-1nc1cc(F)c(C)c3c1c2[C@@H](NC(=O)COCNC(=O)CNC(=O)[C@H](Cc1ccccc1)NC(=O)CNC(=O)CNC(=O)CN1CCOCCN(C(=O)CCN2C(=O)C=CC2=O)CCOCC1)CC3 [Example 22] ({Propanoyl(3-maleimido)}-[X1]GGFG[NHCH2OCH2CO]-Exatecan) | 4.14 | 0.76 | 4.14 | 0.76 | 4.12 | 0.81 | 4.15 | 0.78 | significantly better | significantly better | significantly better | 0.00
C=C1C[C@@H]2CC[C@@]34C[C@H]5OC6C(C[C@H]7CC[C@H](CC(=O)C[C@@H]8[C@@H](OC)[C@@H](CC(O)CNC(=O)CNC(=O)[C@H](Cc9ccccc9)NC(=O)CNC(=O)CNC(=O)CN9CCN%10CCN(CCN(CC(=O)NCC(=O)NCC(=O)N[C@@H](Cc%11ccccc%11)C(=O)NCC(=O)NCOCC(=O)N[C@H]%11CCc%12c(C)c(F)cc%13nc%14c(c%11c%12%13)Cn%11c-%14cc%12c(c%11=O)COC(=O)[C@]%12(O)CC)CC9)CCN(C(=O)CCCCCN9C(=O)C=CC9=O)CC%10)O[C@H]8C[C@H]8O[C@@H](CC[C@@H]1O2)C[C@@H](C)C8=C)O[C@@H]7[C@@H]6O3)[C@H]5O4 (stereo partly drawn) [Example 59] | 3.83 | 1.18 | 3.83 | 1.18 | 3.83 | 1.22 | 3.78 | 1.27 |  |  |  | 2.57
CCc1c2c(nc3ccc(O)cc13)-c1cc3c(c(=O)n1C2)COC(=O)[C@@]3(CC)OC(=O)N(C)CCN(C)C(=O)COCNC(=O)[C@H](CC(N)=O)NC(=O)[C@H](C)NC(=O)[C@H](C)NC(=O)CN1CCOCCN(C(=O)CCN2C(=O)C=CC2=O)CCOCC1 [Example 83] | 3.96 | 0.56 | 3.96 | 0.56 | 3.98 | 0.59 | 3.96 | 0.58 |  |  |  | 2.23
CC[C@H](C)[C@@H]([C@@H](CC(=O)N1CCC[C@@H]1[C@H](OC)[C@@H](C)C(=O)N[C@H](C)[C@@H](O)c1ccccc1)OC)N(C)C(=O)[C@@H](NC(=O)[C@H](C(C)C)N(C)C(=O)OCc1ccc(NC(=O)CNC(=O)[C@H](Cc2ccccc2)NC(=O)CNC(=O)CNC(=O)CN2CCOCCN(C(=O)CCOCCOCCOCCOCCN3C(=O)C=CC3=O)CCOCC2)cc1)C(C)C [Example 85] (MaleimidoPEG4propanoyl-[X1]GGFG[PABC][NMeV]V[Dil][X2]-X3) | 4.04 | 1.43 | 4.04 | 1.43 | 4.08 | 1.48 | 4.00 | 1.45 |  |  |  | 1.98
CC[C@H](C)[C@@H]([C@@H](CC(=O)N1CCC[C@@H]1[C@H](OC)[C@@H](C)C(=O)N[C@H](C)[C@@H](O)c1ccccc1)OC)N(C)C(=O)[C@@H](NC(=O)[C@H](C(C)C)N(C)C(=O)OCc1ccc(NC(=O)CNC(=O)[C@H](Cc2ccccc2)NC(=O)CNC(=O)CN2CCOCCN(C(=O)CCN3C(=O)C=CC3=O)CCOCC2)cc1)C(C)C [Example 86] ({Propanoyl(3-maleimido)}-[X1]GFG[PABC][NMeV]V[Dil][X2]-X3) | 4.20 | 0.97 | 4.20 | 0.97 | 4.23 | 0.99 | 4.16 | 1.11 |  |  |  | 3.45
C=C1C[C@@H]2CC[C@@]34C[C@H]5OC6C(O[C@H]7CC[C@H](CC(=O)C[C@@H]8[C@@H](OC)[C@@H](C[C@H](O)CNC(=O)OCc9ccc(NC(=O)[C@H](CCCNC(N)=O)NC(=O)[C@@H](NC(=O)CN%10CCOCCN(C(=O)CCN%11C(=O)C=CC%11=O)CCOCC%10)C(C)C)cc9)O[C@H]8C[C@H]8O[C@@H](CC[C@@H]1O2)C[C@@H](C)C8=C)O[C@@H]7[C@@H]6O3)[C@H]5O4 [Example 87] | 3.85 | 1.12 | 3.85 | 1.12 | 3.87 | 1.15 | 3.81 | 1.24 |  |  |  | 2.11
